In patent publication US20150299335A1 (X BODY, published 2015) one finds Kd, kon and koff data, which are given here for one molecule.

In experiment [1] the target is T1, HER2 (UniProt P04626 23-652, limits assumed).
T1 construct: also called receptor tyrosine-protein kinase erbB-2
The experiment can be described thus: saturation binding curve, CPM against Her 2 (nM), 0 to 50 nM, plateau about 470 CPM; the text does not name the assay [upper left graph].

In experiment [2] the target is T1, HER2. Nature of the experiment: surface plasmon resonance (Biacore). For orientation: SPR reads the build-up and loss of mass on a sensor chip optically.
Experiment [3] addresses T1, HER2. Nature of the experiment: saturation binding curve, CPM against Her 2 (nM), 0 to 50 nM, plateau about 470 CPM; the text does not name the assay [left graph].
Experiment [4] deals with T1, HER2. The experiment can be described thus: surface plasmon resonance (Biacore Kinetics), table under the sensorgrams [table at the bottom].

B1: B8 anti-HER2 VH domain (other)
VH: EVQLVESGAEVKEPGASVKVSCKSSGYSFTGNYMHWVRQAPGQGLEWMGWMNPKSGGTYYAQKFQGRVTMTWDTSISTAYMELSGLTSDDTAVYYCARWARGSTSPHGLDVWGQGTLVTVSS
notes: Stand-alone antibody VH domain with no light chain; also called B8 VH domain; B8 VH
Consider B1, for which the equilibrium dissociation constant (Kd) (in general, the concentration at which binding is half-saturated) with HER2 [1] amounted to 1.4 nM; in the experiment with HER2 [2], 1.2 nM; with HER2 [3], 1.4 nM; with HER2 [4], 1.2 nM. Moreover, the kon with HER2 [2] and with HER2 [4] was 139000 M⁻¹ s⁻¹ in each case. In addition, the off-rate constant (koff) – broadly, the rate constant with which the complex falls apart – in the experiment with HER2 [4] was 0.000167 s⁻¹.
